First the molecules themselves.
B1: HDV Ribozyme (parent)
chain: GGCCGGCAUGGUCCCAGCCUCCUCGCUGGCGCCGGCUGGGCAACAUUCCGAGGGGACCGUCCCCUCGGUAAUGGCGAAUGGGACCCA

In the data set the parent is B1. The data set is described as follows: self-cleavage, relative activity (ratio to wild type); higher = more cleavage; co-transcriptional.
For U46A G76A, the self-cleavage stood at 0.831. For G11C C48U the value was 0.119. For C4U C86A the value was 0.875; for C41U U72A, 0.656; for G52C C66U, 0.965. To G28U C32G belongs 0.133; to C30G C33G, 0.115; to C15U C57U, 0.864. For A42U C75U, the self-cleavage is 0.0665. For C14U G17C the value was 0.156. For U37G G81A the value was 0.

Consider U9A C58G, for which the self-cleavage was 0.929.

For C7U G82U, the self-cleavage is 0.0678. To C57G G73A belongs 0.658; to G1A A71G, 0.104; to G59C C61U, 1.01.

C7U G52C: the self-cleavage came out at 0.849. As to A45G U47A, the self-cleavage amounted to 1.13. To C19A C41A belongs 0.0268.

For the variant G39C A56G, the self-cleavage worked out at 0.356. For C64U U72G the value was 0.712; for C30G C66A, 0.0282. To G76U G80C belongs 0.204; to U9A C64U, 1.04; to G39A C84A, 0.415.

As to U9G C22G, the self-cleavage is 0.208.

As for U37G A51C, the self-cleavage is 0.0504. Take U12G C44G: the self-cleavage was determined as 0.475.

For the variant A8U C64A, the self-cleavage was found to be 0.538.

Consider A77C A83U, for which the self-cleavage came out at 0.312. With A42G A56C, the self-cleavage amounted to 0.54.

As for C15G C41A, the self-cleavage was found to be 0.529. To G40U A42C belongs 0.671. To G53A G67U belongs 0.884; to C26A G74A, 0.573; to U47G G55C, 1.07.

In the case of U20G G28A, the self-cleavage turned out to be 0.0536. As for C21U U69C, the self-cleavage turned out to be 0.138. To C32A A56C belongs 0.293. For G29U C48A the value was 0.117; for C21U C84A, 0.0755.

For the variant U69G G73A, the self-cleavage was 0.746. For G10U G80C the value was 0.0936.

Take C30G G40C: the self-cleavage came out at 0.106. For G17A U69C the value was 0.786; for C30A G39A, 0.0489; for A77U G80A, 0.0923. Take U65A U69C: the self-cleavage came out at 0.782. To C15U G38U belongs 0.259. Regarding G40C U47G, the self-cleavage came out at 0.173. With C41G G59A, the self-cleavage came to 0.758. To G2U G53A belongs 0.0412; to G38U U69C, 0.192.

Consider G35C G50A, for which the self-cleavage was 0.0528. For C7G U23A the value was 0.227. U47A C66A: the self-cleavage turned out to be 0.847. Take G11C G76U: the self-cleavage is 0.604.

Regarding C48G G76U, the self-cleavage was 0.997. For U27G C66U the value was 1.02.

In the case of A8C C36G, the self-cleavage is 0. For C14U C15A, the self-cleavage was found to be 0.475. For G53A A71U the value was 0.904; for G68C G80C, 0.208. Turning to U9A A70U, the self-cleavage stood at 0.997. For C32A G34C the value was 0.208; for C41A G76U, 1.02. On to C61A U79A, for which the self-cleavage came out at 0.642. As for A45C C64U, the self-cleavage came to 0.73. As for G6U U47C, the self-cleavage turned out to be 0.467. For U12A C13G the value was 0; for C3G C75G, 0.0496. Turning to U20C C44G, the self-cleavage came to 0.0692. With U60G C84G, the self-cleavage was 0.902. To G38U C84U belongs 0.0821; to G2C G50C, 0.0277. To C24G G68U belongs 0.0191; to C4A C58G, 0.259. For C24G G29A the value was 0.188.

On to U46G G54C, for which the self-cleavage stood at 0.453. For C44G A45G the value was 0.503. To U12G G73C belongs 0.489; to G11A C61A, 0.379; to C14U U60C, 1.11. For C13U G38A the value was 0.138. Turning to C14U A56U, the self-cleavage worked out at 1.22. For U46G G59U the value was 0.902; for C30G A78C, 0.0744; for G55C C66A, 0.87. For G1A C22A the value was 0.0831; for U9A A42C, 0.252; for C57G G82C, 0.306.

With G52C U60C, the self-cleavage came out at 0.966. To U23C A42C belongs 0.161; to G1A G11U, 0.0992; to G5C C19U, 0.0536.

On to A45G A56U, for which the self-cleavage came out at 1.12. To C49U C85U belongs 0.799. To G74A A83C belongs 0.232. Regarding G67C G82A, the self-cleavage came to 0.108. A8G G68U: the self-cleavage is 0.855. To C22U G59U belongs 0.858; to U12A U47C, 0.332; to C24A G76U, 0.842.

For A56U C64U, the self-cleavage was found to be 1.07.

Regarding G55C C85G, the self-cleavage is 1.15. For C4A C26G the value was 0.348; for A42U G50C, 0.285; for G54A C85G, 0.892. For C63A C85A the value was 0.618; for G10C C41A, 0.767; for U27C G28U, 0.0678. To G34U C62G belongs 0.117; to U12G A87G, 0.723; to C32U G53C, 0.846.

As for G34U A51C, the self-cleavage amounted to 0.0707.

As for G35A A77U, the self-cleavage is 0.253. For A16G U37A the value was 0.115.

C64G G80A: the self-cleavage is 0.641. To U12A C22A belongs 0; to G2U C18G, 0.0692; to G5A C64G, 0.237.

On to C21G A45U, for which the self-cleavage was found to be 0.0405.

Turning to A8C U79C, the self-cleavage stood at 0.181.

Regarding G2U G50U, the self-cleavage amounted to 0. Consider A51C G82A, for which the self-cleavage amounted to 0.298.

With G6A A51C, the self-cleavage is 0.522. In the case of G17A U27C, the self-cleavage turned out to be 0.309. For A8U G74C the value was 0.166; for C4U C19U, 0.0665; for C19G C30U, 0.0462.

On to G52C A71U, for which the self-cleavage amounted to 0.831.

As for C18G A87C, the self-cleavage was 0.104. For C32A G54A the value was 0.212. For C4G U9G the value was 0.293. For C14U G39A the value was 0.284; for C13A A70C, 0.285; for G2U C19A, 0.0165. On to G53U C62U, for which the self-cleavage turned out to be 1.06.

With C32A C41G, the self-cleavage is 0.

With C15G C32G, the self-cleavage turned out to be 0.145.

For the variant G1C C24G, the self-cleavage amounted to 0.0462. To G34C C86U belongs 0.237. For C14G A16G the value was 0.554; for U23C C49G, 0.655; for U47C C58U, 0.752.

Take C64U A78G: the self-cleavage amounted to 0.813. Regarding G11C C32A, the self-cleavage was 0.0437.

On to G1C C3G, for which the self-cleavage was determined as 0.443.

Turning to G40U C66A, the self-cleavage was determined as 0.702. Consider G29A U60C, for which the self-cleavage worked out at 0.0997. For C24G C58A the value was 0.121; for A51C U79A, 0.959; for C4U C18A, 0. Consider G29A G54C, for which the self-cleavage was determined as 0.113. For G5C C36A the value was 0.0489; for C36U A87U, 0.769; for A16U C61G, 0.712. As to G17A G74C, the self-cleavage amounted to 0.0346. For C57A U65G the value was 1.04. On to C3G G25C, for which the self-cleavage amounted to 0.0292. To G6C C84G belongs 0.138; to C49U G50A, 1.05; to C3G C19G, 0.0326. For A42G A43C the value was 0.158; for C15A C64A, 0.689; for C30G G34U, 0.0449. For C7G G31U the value was 0.745.

Source of the values: the RNAGym collection of RNA variant scans (doi:10.7554/elife.80360).
